# Source: patent US20130004505A1 (CELLTRION, published 2013)
# Substitutions are numbered along the chain they refer to.
# B1: CT120 antibody (antibody, V domains shown)
# VH: QVQLVQSGAEVKMPGSSVKVSCKTSGVFFSSHAISWVRQAPGQGLEWMGGISPMFGTTHYAQKFQGRVTITADQSTTTAYMELTSLTSEDTAVYYCARDGAGSYYPLNWFDPWGQGTLVTVSS
# VL: EIVLTQSPATLSLSPGERATLSCRASENIWNNLAWYQQKPGQAPRLLISGASTGATGVPSRFRGSGSRTEFTLTISSLQSEDFAIYFCQQYNSWPRTFGPGTKVEIKR
# B2: CT104 antibody (antibody, V domains shown)
# VH: QVQLVQSGAEVKKPGSSVKVSCKASGGTLNNYAISWVRQAPGQGLEWMGGISPIFGTLNYAERFQGRVTITADVFTNTVYMELSSLRSEDTAVYFCARGCGYNCYYFDGWGQGTLVTVSS
# VL: EIVLTQSPGTLSLSPGERATLSCRASQSLSSSSLVWYQQKPGQAPRLLIYGASSRATGIPDRFSGSGSGTDFTLTISRLEPEDFAVYYCQQYGNSPYTFGQGTQVEIKR
# B3: CT123 antibody (antibody, V domains shown)
# VH: QVQLVESGGGVVQPGRSLRLSCAASGFTFSRFGIHWVRQAPGKGLEWMAVIWYDGSNKFYADSVKGRFTISRDNSKNTVYLQMNSLRAEDTAVYYCAKDSRGYCSSIICFEGGLDNWGQGTLVTVSS
# VL: B2 VL with I2T, L29V, S31I, S33Y, V35A, Q39R, S54R, N94S, Q104K, V105L
# What was measured:
# Test in all cases: cell-based or functional assay
# [1] = biological target: T1, HA of influenza A virus H1N1 A/Texas/05/2009-RG15 (pandemic), on virus (influenza A virus H1N1 …)
# [2] = biological target: T2, HA of influenza A virus H1N1 A/New York/18/2009-RG18 (pandemic), on virus (influenza A virus H1N1 (A/New …))
# [3] = biological target: T1, HA of influenza A virus H1N1 …; remark: listed apart in the source
# [4] = biological target: T2, HA of influenza A virus H1N1 A/New …; remark: listed apart in the source
# [5] = biological target: HA of influenza A virus H3N2 A/Wisconsin/67/2005, on virus (influenza A virus H3N2 …)
# [6] = biological target: HA of influenza A virus H5N1 A/Anhui/1/05, on virus (influenza A virus H5N1 (A/Anhui/1/05))
# [7] = biological target: HA of influenza A virus H1N1 A/Solomon Islands/3/2006 (seasonal), on virus (influenza A virus H1N1 (A/Solomon …))
# [8] = biological target: HA of influenza A virus H5N1 A/Vietnam/1203/04, on virus (influenza A virus H5N1 …)
# [9] = biological target: T1, HA of influenza A virus H1N1 …; remark: listed apart in the source
# [10] = biological target: HA of influenza A virus H2N2 A/Ann Arbor/6/60 ca, on virus (influenza A virus H2N2 (A/Ann …))
# [11] = biological target: HA of influenza A virus H1N1 A/Ohio/83 (seasonal), on virus (influenza A virus H1N1 (A/Ohio/83))
# [12] = biological target: T2, HA of influenza A virus H1N1 A/New …; remark: listed apart in the source
binder,measurement,setting,value
B1,Antibody concentration* (neutralizing antibody concentration),[1],0.156 µg/mL
same,IC50 of neutralizing activity,[1],0.15 µg/mL
same,Antibody concentration* (neutralizing antibody concentration),[2],0.313 µg/mL
same,IC50 of neutralizing activity,[2],0.31 µg/mL
same,Hemagglutination-inhibition test: hemagglutination inhibition end point,[3],> 20 µg/mL
same,Hemagglutination-inhibition test: hemagglutination inhibition end point,[4],> 20 µg/mL
same,MN assay: lowest antibody concentration at which no virus antigen was detected,[5],> 10 µg/mL
same,MN assay: lowest antibody concentration at which no virus antigen was detected,[6],0.625 µg/mL
same,MN assay: lowest antibody concentration at which no virus antigen was detected,[7],0.625 µg/mL
same,MN assay: lowest antibody concentration at which no virus antigen was detected,[8],1.25 µg/mL
same,MN assay: lowest antibody concentration at which no virus antigen was detected,[9],0.313 µg/mL
same,MN assay: lowest antibody concentration at which no virus antigen was detected,[10],2.5 µg/mL
same,MN assay: lowest antibody concentration at which no virus antigen was detected,[11],0.156 µg/mL
same,MN assay: lowest antibody concentration at which no virus antigen was detected,[12],0.313 µg/mL
B2,Antibody concentration* (neutralizing antibody concentration),[1],0.313 µg/mL
same,IC50 of neutralizing activity,[1],0.29 µg/mL
same,Antibody concentration* (neutralizing antibody concentration),[2],1.25 µg/mL
same,IC50 of neutralizing activity,[2],0.56 µg/mL
same,Hemagglutination-inhibition test: hemagglutination inhibition end point,[3],> 20 µg/mL
same,Hemagglutination-inhibition test: hemagglutination inhibition end point,[4],> 20 µg/mL
same,MN assay: lowest antibody concentration at which no virus antigen was detected,[5],> 10 µg/mL
same,MN assay: lowest antibody concentration at which no virus antigen was detected,[6],0.625 µg/mL
same,MN assay: lowest antibody concentration at which no virus antigen was detected,[7],0.625 µg/mL
same,MN assay: lowest antibody concentration at which no virus antigen was detected,[8],1.25 µg/mL
same,MN assay: lowest antibody concentration at which no virus antigen was detected,[9],0.313 µg/mL
same,MN assay: lowest antibody concentration at which no virus antigen was detected,[10],> 10 µg/mL
same,MN assay: lowest antibody concentration at which no virus antigen was detected,[11],0.313 µg/mL
same,MN assay: lowest antibody concentration at which no virus antigen was detected,[12],0.625 µg/mL
B3,Antibody concentration* (neutralizing antibody concentration),[1],0.625 µg/mL
same,IC50 of neutralizing activity,[1],0.068 µg/mL
same,Antibody concentration* (neutralizing antibody concentration),[2],1.25 µg/mL
same,IC50 of neutralizing activity,[2],0.29 µg/mL
same,Hemagglutination-inhibition test: hemagglutination inhibition end point,[3],> 20 µg/mL
same,Hemagglutination-inhibition test: hemagglutination inhibition end point,[4],> 20 µg/mL
same,MN assay: lowest antibody concentration at which no virus antigen was detected,[5],> 10 µg/mL
same,MN assay: lowest antibody concentration at which no virus antigen was detected,[6],> 10 µg/mL
same,MN assay: lowest antibody concentration at which no virus antigen was detected,[7],1.25 µg/mL
same,MN assay: lowest antibody concentration at which no virus antigen was detected,[8],> 10 µg/mL
same,MN assay: lowest antibody concentration at which no virus antigen was detected,[9],0.313 µg/mL
same,MN assay: lowest antibody concentration at which no virus antigen was detected,[10],> 10 µg/mL
same,MN assay: lowest antibody concentration at which no virus antigen was detected,[11],0.313 µg/mL
same,MN assay: lowest antibody concentration at which no virus antigen was detected,[12],0.625 µg/mL
